The results in this text go back to US20150374698A1.

The target of this test is AVP V1A receptor (mouse) (UniProt Q62463). Kind of test: cell-based or functional assay.
Chain of AVP V1A receptor (mouse) (Q62463 whole entry): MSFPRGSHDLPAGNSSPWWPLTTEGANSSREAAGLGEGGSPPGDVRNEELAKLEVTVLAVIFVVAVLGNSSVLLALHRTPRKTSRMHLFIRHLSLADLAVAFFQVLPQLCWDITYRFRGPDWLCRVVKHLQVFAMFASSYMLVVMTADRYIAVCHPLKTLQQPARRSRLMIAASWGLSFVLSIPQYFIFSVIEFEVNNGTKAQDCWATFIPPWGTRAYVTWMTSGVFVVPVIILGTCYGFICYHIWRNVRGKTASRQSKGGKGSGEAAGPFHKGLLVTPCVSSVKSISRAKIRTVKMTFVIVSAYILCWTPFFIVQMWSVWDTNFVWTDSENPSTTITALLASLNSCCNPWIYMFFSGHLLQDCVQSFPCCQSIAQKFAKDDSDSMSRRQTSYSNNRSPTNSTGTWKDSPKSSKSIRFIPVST

Regarding “arginine vasopressin (from UniProt P01185 20-28) (peptide)”, the EC50 of contractile response, 2°-branch mesenteric artery, control mice was 0.57 nM; the EC50 of contractile response, 2°-branch mesenteric artery, sRA mice turned out to be 15.9 nM; the EC50 of contractile response, abdominal aortic rings, control mice amounted to 2.19 nM; the EC50 of contractile response, abdominal aortic rings, sRA mice was 3.72 nM. The substance also registered a Maximum Response (contraction), 2°-branch mesenteric artery, control mice of 52.5%; a Maximum Response (contraction), 2°-branch mesenteric artery, sRA mice of 17.3%; a Maximum Response (contraction), abdominal aortic rings, control mice of 0.29 g; a Maximum Response (contraction), abdominal aortic rings, sRA mice of 0.12 g.
